Data taken from US20260193348A1 (ANTENGENE BIOLOGICS, published 2026).
Changes are numbered by the printed parent chain. Names may count otherwise.

B1: Bis-108+147-R35K.L (bispecific antibody, V domains shown)
VH 1: EVQLVQSGAEVKKPGASVKVSCKASGYTFTSYVIHWVRQAPGQGLEWMGYFNPYNDGTKYNEEFKGRVTLTSDKSTSTAYMELRSLRSDDTAVYYCARGGVRRYFDVWGQGTTVTVSS
VL 1: DIQMTQSPSSLSASVGDRVTITCRASQDIGSNLNWLQQKPGKAIKRLIYATFGLDSGVPSRFSGSRSGTDFTLTISSLQPEDFATYYCQQYASFPYTFGGGTKVEIK
VH 2: EVQLVQSGAEVKKPGSSVKVSCKASGYTFTSYWMHWVRQAPGQCLEWMGNINPSSGATNYNEKFKSRVTLTVDKSTSTAYMELSSLRSEDTAVYYCARDRSSQYYFDYWGQGTTVTVSS
VL 2: DIVMTQSPDSLAVSLGERATINCKSSQSLLNSRSKKNYLAWYQQKPGQPPKLLIYWASTRESGVPDRFSGSGSGTDFTLTISSLQAEDVAVYYCTQSYTLRTFGCGTKVEIK
notes: Fab-scFv-Fab (2+1): first VH/VL = anti-GPRC5D Fabs, second VH/VL = anti-CD3 scFv
B2: Bis-108+147-S102Q.H (bispecific antibody, V domains shown)
VH 1: B1 VH 1
VL 1: B1 VL 1
VH 2: B1 VH 2 with S102Q
VL 2: B1 VL 2 with K35R
notes: as for B1
B3: Bis-108+147-S32R.L (bispecific antibody, V domains shown)
VH 1: B1 VH 1
VL 1: B1 VL 1
VH 2: B1 VH 2
VL 2: B1 VL 2 with S32R, K35R
notes: as for B1
B4: Bis-108+147-R100Q.H (bispecific antibody, V domains shown)
VH 1: B1 VH 1
VL 1: B1 VL 1
VH 2: B1 VH 2 with R100Q
VL 2: B1 VL 2 with K35R
notes: as for B1
B5: Bis-108+147-S31R.H (bispecific antibody, V domains shown)
VH 1: B1 VH 1
VL 1: B1 VL 1
VH 2: B1 VH 2 with S31R
VL 2: B1 VL 2 with K35R
notes: as for B1
B6: Bis-108+147-R35S.L (bispecific antibody, V domains shown)
VH 1: B1 VH 1
VL 1: B1 VL 1
VH 2: B1 VH 2
VL 2: B1 VL 2 with K35S
notes: as for B1
B7: Bis-108+147-S54R.H (bispecific antibody, V domains shown)
VH 1: B1 VH 1
VL 1: B1 VL 1
VH 2: B1 VH 2 with S54R
VL 2: B1 VL 2 with K35R
notes: as for B1

Columns and labels:
[1] = target: T1, GPRC5D on multiple myeloma cells (human, UniProt Q9NZD1 1-345); experiment: FACS on MM.1S cells
T1 construct: whole, on cells; Endogenous GPRC5D on multiple myeloma cell lines; also called G-protein coupled receptor family C group 5 member D; MM.1S, MOLP-8, L363, RPMI8226 cells

[2] = target: T2, CD3 on T cells / Jurkat cells (human, UniProt P07766 23-207; P04234 22-171; P09693 23-182); experiment: FACS on Jurkat cells
T2 construct: whole, on cells; Native CD3 complex on CD3+ T cells isolated from normal donors or on Jurkat cells; also called human CD3; CD3+ T cells
T2 sequence (P07766 23-207, chain 1 of 3): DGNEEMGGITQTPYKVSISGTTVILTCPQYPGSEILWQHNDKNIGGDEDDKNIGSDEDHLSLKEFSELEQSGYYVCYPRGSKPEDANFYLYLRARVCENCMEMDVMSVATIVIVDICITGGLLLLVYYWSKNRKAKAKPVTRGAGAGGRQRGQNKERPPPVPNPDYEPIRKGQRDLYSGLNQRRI
T2 sequence (P04234 22-171, chain 2 of 3): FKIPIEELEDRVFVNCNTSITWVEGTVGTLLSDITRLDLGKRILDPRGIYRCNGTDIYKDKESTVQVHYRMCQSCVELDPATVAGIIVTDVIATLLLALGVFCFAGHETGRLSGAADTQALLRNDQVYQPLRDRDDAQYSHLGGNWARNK
T2 sequence (P09693 23-182, chain 3 of 3): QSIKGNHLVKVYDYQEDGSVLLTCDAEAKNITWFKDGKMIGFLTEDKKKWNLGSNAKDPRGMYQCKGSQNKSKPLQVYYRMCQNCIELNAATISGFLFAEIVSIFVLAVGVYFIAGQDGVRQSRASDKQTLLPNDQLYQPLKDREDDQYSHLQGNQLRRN

T1 sequence (Q9NZD1 whole entry): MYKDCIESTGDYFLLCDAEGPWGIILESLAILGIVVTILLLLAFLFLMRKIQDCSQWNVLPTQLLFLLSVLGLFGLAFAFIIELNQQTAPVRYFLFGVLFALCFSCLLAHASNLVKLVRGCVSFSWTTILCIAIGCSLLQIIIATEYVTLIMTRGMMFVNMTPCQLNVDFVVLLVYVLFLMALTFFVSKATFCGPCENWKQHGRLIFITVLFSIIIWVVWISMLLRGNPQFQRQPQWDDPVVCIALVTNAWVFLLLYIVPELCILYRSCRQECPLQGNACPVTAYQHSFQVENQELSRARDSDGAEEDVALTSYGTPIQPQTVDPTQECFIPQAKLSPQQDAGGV

Binder	binding result [1]	binding result [2]
B1	binds	binds
B2	binds	binds
B3	binds	binds
B4	binds	binds
B5	binds	binds
B6	binds	binds
B7	binds	binds
